Assay results taken from patent US20230212319A1, “NOVEL ANTIGEN BINDING DOMAINS AND SYNTHETIC ANTIGEN RECEPTORS INCORPORATING THE SAME” (University of Southern California, priority 2020, published 2023).

B1: 22089 (protein)
chain: MALPVTALLLPLALLLHAARPQLQLQESGPGLVKPSETLSLTCTVSGDSISSGDYYWGWIRQPPGKGLEWIGHIYYSGVTYYNPSLKSRVTISVDTSRNQFSLKLSSVTAADTAVYYCTREDSSNWRSRGQGTLVTVSSLEGSGRADCGFTSESYQQGVLSATILYEILLGKATLYAVLVSALVLMAMVKRKDSRGRAKRSGSGATNFSLLKQAGDVEENPGPTSMDWIWRILFLVGAATGAHSFEVQLLESGGGLIQPGGSLRLSCAASGFTFSSHAMTWVRQAPGKGLEWVSAISGSGDYTHYADSVKGRFTISRDNSKNTVYLQMNSLRAEDSAVYYCAKDEDGGSLLGHRGQGTLVTVSSTRIQNPDPAVYQLRDSKSSDKSVCLFTDFDSQTNVSQSKDSDVYITDKCVLDMRSMDFKSNSAVAWSNKSDFACANAFNNSIIPEDTFFPSPESSCDVKLVEKSFETDTNLNFQNLSVIGFRILLLKVAGFNLLMTLRLWSSRAKRSGSGVKQTLNFDLLKLAGDVESNPGPSRGHMTEYKPTVRLATRDDVPRAVRTLAAAFADYPATRHTVDPDRHIERVTELQELFLTRVGLDIGKVWVADDGAAVAVWTTPESVEAGAVFAEIGPRMAELSGSRLAAQQQMEGLLAPHRPKEPAWFLATVGVSPDHQGKGLGSAVVLPGVEAAERAGVPAFLETSAPRNLPFYERLGFTVTADVEVPEGPRTWCMTRKPGA
B2: 22147 (protein)
chain: MALPVTALLLPLALLLHAARPACEVQLLESGGGLIQPGGSLRLSCAASGFTFSSHAMTWVRQAPGKGLEWVSAISGSGDYTHYADSVKGRFTISRDNSKNTVYLQMNSLRAEDSAVYYCAKDEDGGSLLGHRGQGTLVTVSSGTGGGGSGGGGSGGGGSEFDIQMTQSPSSLSASVGDRVTITCRASQDISNYLNWYQQKPGKAVKLLIYYTSILHSGVPSRFSGSGSGTDYTLTISSLQPEDFATYFCQQGNTLPWTFGGGTKVEIKLEADVSPKPTIFLPSIAETKLQKAGTYLCLLEKFFPDVIKIHWQEKKSNTILGSQEGNTMKTNDTYMKFSWLTVPEKSLDKEHRCIVRHENNKNGVDQEIIFPPIKTDVITMDPKDNCSKDANDTLLLQLTNTSAYYMYLLLLLKSVVYFAIITCCLLRRTAFCCNGEKSRAKRSGSGATNFSLLKQAGDVEENPGPTSMDWIWRILFLVGAATGAHSGPQVQLQESGGGLAQAGGSLRLSCAASGRTFSMGWFRQAPGKEREFVAAITYSGGSPYYASSVRGRFTISRDNAKNTVYLQMNSLKPEDTAVYYCAANPTYGSDWNAENWGQGTQVTVSSGSGGGGSGGGGSGGGGSFEVQLVESGGGLVKPGGSLKLSCAASGFAFSIYDMSWVRQAPGKGLEWVAYISSGGGTTYYPDTVKGRFTISRDNAKNTLYLQMSSLRAEDTAMYYCARHSGYGSSYGVLFAYWGQGTLVTVSSTRPHTKPSVFVMKNGTNVACLVKEFYPKDIRINLVSSKKITEFDPAIVISPSGKYNAVKLGKYEDSNSVTCSVQHDNKTVHSTDFEVKTDSTDHVKPKETENTKQPSKSCHKPKAIVHTEKVNMMSLTVLGLRMLFAKTVAVNFLLTAKLFFLRAKRSGSGVKQTLNFDLLKLAGDVESNPGPSRGHMTEYKPTVRLATRDDVPRAVRTLAAAFADYPATRHTVDPDRHIERVTELQELFLTRVGLDIGKVWVADDGAAVAVWTTPESVEAGAVFAEIGPRMAELSGSRLAAQQQMEGLLAPHRPKEPAWFLATVGVSPDHQGKGLGSAVVLPGVEAAERAGVPAFLETSAPRNLPFYERLGFTVTADVEVPEGPRTWCMTRKPGA
B3: 22165 (protein)
chain: MALPVTALLLPLALLLHAARPACEVQLLESGGGLIQPGGSLRLSCAASGFTFSSHAMTWVRQAPGKGLEWVSAISGSGDYTHYADSVKGRFTISRDNSKNTVYLQMNSLRAEDSAVYYCAKDEDGGSLLGHRGQGTLVTVSSGTGGGGSGGGGSGGGGSEFDIQMTQSPSSLSASVGDRVTITCKASDHINNWLAWYQQKPGQAPKLLIYGATTLETGVPSRFSGSGSGTDYTLTISSLQPEDFATYYCQQSWNTPWTFGQGTKLEIKRLEDLKNVFPPEVAVFEPSEAEISHTQKATLVCLATGFYPDHVELSWWVNGKEVHSGVCTDPQPLKEQPALNDSRYCLSSRLRVSATFWQNPRNHFRCQVQFYGLSENDEWTQDRAKPVTQIVSAEAWGRADCGFTSESYQQGVLSATILYEILLGKATLYAVLVSALVLMAMVKRKDSRGRAKRSGSGATNFSLLKQAGDVEENPGPTSATMDWIWRILFLVGAATGAHSGPEVQLVESGGGLVQAGGSLRLSCAASGRTFSMGWFRQAPGKEREFVAAITYSGGSPYYADSVKGRFTISRDNAKNTVYLQMNSLKPEDTAVYYCAANPTYGSDWNAENWGQGTQVTVSSGSGGGGSGGGGSGGGGSFEQVQLQQPGAELVKPGASVKMSCKASGYAFSSYWINWMKQKPGQGLEWIGQIYPGDGDTNYNGKFKGRATLTADTSSSTAYMQLSSLTSEDSAVYFCARSITTVVGCAMDYWGQGTSVTVSSTRIQNPDPAVYQLRDSKSSDKSVCLFTDFDSQTNVSQSKDSDVYITDKCVLDMRSMDFKSNSAVAWSNKSDFACANAFNNSIIPEDTFFPSPESSCDVKLVEKSFETDTNLNFQNLSVIGFRILLLKVAGFNLLMTLRLWSSRAKRSGSGVKQTLNFDLLKLAGDVESNPGPSRGHMTEYKPTVRLATRDDVPRAVRTLAAAFADYPATRHTVDPDRHIERVTELQELFLTRVGLDIGKVWVADDGAAVAVWTTPESVEAGAVFAEIGPRMAELSGSRLAAQQQMEGLLAPHRPKEPAWFLATVGVSPDHQGKGLGSAVVLPGVEAAERAGVPAFLETSAPRNLPFYERLGFTVTADVEVPEGPRTWCMTRKPGA
B4: 22087 (protein)
chain: MALPVTALLLPLALLLHAARPQVQLVESGGGLVQPGGSLRLSCAASGFTFTNHAMSWVRQAPGKGLELVSSISGNGRTTYYADSVKGRFTISRDISKNTLDLQMNSLRAEDTAVYYCAKDGGETLVDSRGQGTLVTVSSLEGSGGGGSGGGGSGEDLKNVFPPEVAVFEPSEAEISHTQKATLVCLATGFYPDHVELSWWVNGKEVHSGVCTDPQPLKEQPALNDSRYCLSSRLRVSATFWQNPRNHFRCQVQFYGLSENDEWTQDRAKPVTQIVSAEAWGRADCGFTSESYQQGVLSATILYEILLGKATLYAVLVSALVLMAMVKRKDSRGRAKRSGSGATNFSLLKQAGDVEENPGPTSMDWIWRILFLVGAATGAHSFEEVQLLESGGGLVQPGGSLRLSCAASGFTFSSYAMSWVRQAPGKGLEWVSSISGSGDYIYYADSVKGRFTISRDISKNTLYLQMNSLRAEDTAVYYCAKEGTGANSSLADYRGQGTLVTVSSTRGSIPEDTFFPSPESSCDVKLVEKSFETDTNLNFQNLSVIGFRILLLKVAGFNLLMTLRLWSS
B5: 22078 (protein)
chain: MALPVTALLLPLALLLHAARPQLQLQESGPGLVKPSETLSLTCTVSGDSISSGDYYWGWIRQPPGKGLEWIGHIYYSGVTYYNPSLKSRVTISVDTSRNQFSLKLSSVTAADTAVYYCTREDSSNWRSRGQGTLVTVSSLESGGGGSFEEVQLLESGGGLVQPGGSLRLSCAASGFTFSSYAMSWVRQAPGKGLEWVSSISGSGDYIYYADSVKGRFTISRDISKNTLYLQMNSLRAEDTAVYYCAKEGTGANSSLADYRGQGTLVTVSSTRASTKGPSVFPLAPSSKSTSGGTAALGCLVKDYFPEPVTVSWNSGALTSGVHTFPAVLQSSGLYSLSSVVTVPSSSLGTQTYICNVNHKPSNTKVDKRVEPKSCEVKTDSTDHVKPKETENTKQPSKSCHKPKAIVHTEKVNMMSLTVLGLRMLFAKTVAVNFLLTAKLFFLRAKRSGSGVKQTLNFDLLKLAGDVESNPGPSRGHMTEYKPTVRLATRDDVPRAVRTLAAAFADYPATRHTVDPDRHIERVTELQELFLTRVGLDIGKVWVADDGAAVAVWTTPESVEAGAVFAEIGPRMAELSGSRLAAQQQMEGLLAPHRPKEPAWFLATVGVSPDHQGKGLGSAVVLPGVEAAERAGVPAFLETSAPRNLPFYERLGFTVTADVEVPEGPRTWCMTRKPGA
B6: 22076 (protein)
chain: MALPVTALLLPLALLLHAARPQLQLQESGPGLVKPSETLSLTCTVSGDSISSGDYYWGWIRQPPGKGLEWIGHIYYSGVTYYNPSLKSRVTISVDTSRNQFSLKLSSVTAADTAVYYCTREDSSNWRSRGQGTLVTVSSLESGGGGSFEQVQLVESGGGLVQPGGSLRLSCAASGFTFTNHAMSWVRQAPGKGLELVSSISGNGRTTYYADSVKGRFTISRDISKNTLDLQMNSLRAEDTAVYYCAKDGGETLVDSRGQGTLVTVSSTRASTKGPSVFPLAPSSKSTSGGTAALGCLVKDYFPEPVTVSWNSGALTSGVHTFPAVLQSSGLYSLSSVVTVPSSSLGTQTYICNVNHKPSNTKVDKRVEPKSCIPEDTFFPSPESSCDVKLVEKSFETDTNLNFQNLSVIGFRILLLKVAGFNLLMTLRLWSSRAKRSGSGVKQTLNFDLLKLAGDVESNPGPSRGHMTEYKPTVRLATRDDVPRAVRTLAAAFADYPATRHTVDPDRHIERVTELQELFLTRVGLDIGKVWVADDGAAVAVWTTPESVEAGAVFAEIGPRMAELSGSRLAAQQQMEGLLAPHRPKEPAWFLATVGVSPDHQGKGLGSAVVLPGVEAAERAGVPAFLETSAPRNLPFYERLGFTVTADVEVPEGPRTWCMTRKPGA

How the values were obtained:
L363 cells = experiment: JNG assay, co-culture with L363 cells; type: cell-based; conditions: co-culture with L363
Summary of the method: (§1)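 Read-out is NFAT-driven GFP measured by flow cytometry after ~4–18 h co-culture of SAR-expressing JNG cells with target cells (E:T about 1:2). SARs were introduced by lentiviral spinfection and selected with puromycin or blasticidin when possible; scores (+/- to 5+ ≈ 5–50% GFP+) are relative to parental JNG cells.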

RAJI cells = experiment: JNG assay, co-culture with RAJI cells; type: cell-based; conditions: JNG cells expressing construct, co-culture with Raji
Summary of the method: as §1

Molecule	NFAT-GFP ASSAY: L363 (L363 cells)	NFAT-GFP ASSAY: Raji (RAJI cells)
B1	2+ (refer to approximately 5%, 10%, 20%, 30%, 40% and 50% GFP positive cells)	+ (refer to approximately 5%, 10%, 20%, 30%, 40% and 50% GFP positive cells)
B2	+ (refer to approximately 5%, 10%, 20%, 30%, 40% and 50% GFP positive cells)	+ (refer to approximately 5%, 10%, 20%, 30%, 40% and 50% GFP positive cells)
B3	Raji (+), L363 (+) (refer to approximately 5%, 10%, 20%, 30%, 40% and 50% GFP positive cells)	Raji (+), L363 (+) (refer to approximately 5%, 10%, 20%, 30%, 40% and 50% GFP positive cells)
B4	2+ (refer to approximately 5%, 10%, 20%, 30%, 40% and 50% GFP positive cells)	+ (refer to approximately 5%, 10%, 20%, 30%, 40% and 50% GFP positive cells)
B5	+/- (refer to approximately 5%, 10%, 20%, 30%, 40% and 50% GFP positive cells)	+/- (refer to approximately 5%, 10%, 20%, 30%, 40% and 50% GFP positive cells)
B6	+ (refer to approximately 5%, 10%, 20%, 30%, 40% and 50% GFP positive cells)	+/- (refer to approximately 5%, 10%, 20%, 30%, 40% and 50% GFP positive cells)
